Binding signal and activity (fold rate reduction) data for two substances are collected here from patent US20070207532.

The target of data set [1] is AGT mutant of Example 1 (GST fusion) Lys125Ala, Ala127Thr, Arg128Ala, Asn157Gly, Ser159Glu (Homo sapiens) (UniProt P16455). Conditions: co-purified DNA estimated by A280/A260 after purification in 50 mM phosphate, 0.1 M NaCl, 1 mM DTT.
The target of data set [2] is PGEG-hAGT (GST fusion) Asn157Gly, Ser159Glu (Homo sapiens) (UniProt P16455). Briefly: inhibition. As to conditions: BG-Cy3 reaction rate with 25 ug/ml DNA.
PGEG-hAGT (GST fusion) Asn157Gly, Ser159Glu (Homo sapiens), sequence (P16455 whole entry N157G/S159E, the tested form may be a part): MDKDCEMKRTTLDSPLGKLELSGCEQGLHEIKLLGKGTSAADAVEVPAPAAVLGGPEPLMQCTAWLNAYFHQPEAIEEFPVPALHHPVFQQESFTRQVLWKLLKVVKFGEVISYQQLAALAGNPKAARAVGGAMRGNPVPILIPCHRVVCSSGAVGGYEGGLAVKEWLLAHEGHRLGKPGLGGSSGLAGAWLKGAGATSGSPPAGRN

AGT mutant of Example 1 (GST fusion) Lys125Ala, Ala127Thr, Arg128Ala, Asn157Gly, Ser159Glu (Homo sapiens), sequence (P16455 whole entry K125A/A127T/R128A/N157G/S159E, the tested form may be a part): as the sequence (P16455 whole entry N157G/S159E, the tested form may be a part) above, with K125A, A127T, R128A counted along it

In the case of co-purified E. coli DNA, the binding signal in data set [1] is more than 10 fold reduced. salmon sperm DNA: the activity (fold rate reduction) in data set [2] was found to be 5.
